In data set [1] the target is sGC beta1 H-NOXA domain H-NOXA (UniProt Q02153). The settings on record: cited from earlier work.
The target in data set [2] is sGC beta1 catalytic domain catalytic domain (UniProt Q02153). The settings on record: cited from earlier work.
Data set [3] concerns the molecule itself. Nature of the data set: SEC; analytic gel filtration on a Superdex 75 column calibrated with Mw standards, before crystallization; major 38.5 kD and minor 19.5 kD species.

Values joined by “and” are separate entries in the source; they are usually repeats but may differ in a detail not shown here. Identical values can stand only once.

For orientation: Kd means the constant that tells how readily two partners part at equilibrium. The stoichiometry N is the number of molecules, sites or subunits per partner or assembly.

On to “sGC beta1 H-NOXA domain H-NOXA (from UniProt Q02153)”, for which, in data set [1], the Kd was less than 60 µM.

With “sGC beta1 catalytic domain catalytic domain (from UniProt Q02153)”, in data set [2], the Kd was 6 µM.

B1: Rattus norvegicus soluble guanylyl cyclase β1 subunit coiled-coil domain, residues 348-409, I371M (domain or fragment)
chain: GSHMATRDLVLLGEQFREEYKLTQELEMLTDRLQLTLRALEDEKKKTDTLLYSVLPPSVANELRHK
modifications: not fully specified (residues 4, 28); printed as gshmATRDLVLLGEQFREEYKLTQELE**M**LTDRLQLTLRALEDEKKKTDTLLYSVLPPSVANELRHK; also: expressed with selenomethionine (Met replaced by SeMet)
notes: N-terminal cloning artefact left after thrombin cleavage of the pET15b tag; The printed calculated mass of 7712.86 Da fits GSHM + 348-409 with I371M (my calculation; wild type would be about 7694.8 Da), and only the I371M construct's purification is described; One molecule is therefore used for all three experiments; also called sGCβ1 CC; rsGCβ1 CC domain; source: E. coli BL21 (DE3) pLysS, …
For the molecule B1, the “stoichiometry N” value in data set [3] was 4 and 2.

These data come from article PMC2828450, “Crystal structure of the signaling helix coiled-coil domain of the β1 subunit of the soluble guanylyl cyclase” (BMC Structural Biology, 2010).
